Test results taken from patent US20200262877A1, “ION CHANNEL-BINDING PEPTIDES AND METHODS OF USE THEREOF” (priority 2017, published 2020).

Columns and labels:
5HT3a = target: T1, 5HT3a (Homo sapiens, UniProt P46098); experiment: Ion channel panel (IonWorks Barracuda): 5HT3a; type: cell-based
T1 construct: host or cells: HEK293 or CHO
T1 sequence (P46098 whole entry, looked up): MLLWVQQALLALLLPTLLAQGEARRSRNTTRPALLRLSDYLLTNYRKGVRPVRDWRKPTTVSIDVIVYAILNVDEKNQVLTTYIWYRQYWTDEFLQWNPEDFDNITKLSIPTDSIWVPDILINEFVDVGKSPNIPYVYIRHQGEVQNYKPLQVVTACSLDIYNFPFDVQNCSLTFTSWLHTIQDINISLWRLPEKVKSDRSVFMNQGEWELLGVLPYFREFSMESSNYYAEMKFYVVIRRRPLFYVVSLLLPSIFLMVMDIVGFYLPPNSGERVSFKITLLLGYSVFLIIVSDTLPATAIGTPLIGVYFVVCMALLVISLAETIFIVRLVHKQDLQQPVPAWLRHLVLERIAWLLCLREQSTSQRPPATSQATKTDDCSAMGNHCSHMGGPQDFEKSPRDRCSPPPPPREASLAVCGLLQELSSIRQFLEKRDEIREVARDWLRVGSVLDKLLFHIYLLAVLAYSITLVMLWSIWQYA
Method in brief: (§1)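 Peptides were tested in duplicate at final 20 μM and 200 nM, with concentration set by amino acid analysis, in HEPES-buffered saline. They were applied for at least 5 min to HEK293 or CHO cells transfected with each channel. Currents were expressed as % inhibition, 1-(Ipeptide/Icontrol)×100, or % activation, Ipeptide/Icontrol×100, against a channel-matched reference compound.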

α3β4 = target: T2, α3β4 (Homo sapiens, UniProt P30926+P32297); experiment: Ion channel panel (IonWorks Barracuda): α3β4; type: cell-based; settings: 100% = no change, <100% = inhibition
T2 construct: host or cells: HEK293 or CHO
Method in brief: as §1

α4β2 = target: T3, α4β2 (Homo sapiens, UniProt P17787+P43681); experiment: Ion channel panel (IonWorks Barracuda): α4β2; type: cell-based; settings: 100% = no change, <100% = inhibition
T3 construct: host or cells: HEK293 or CHO
Method in brief: as §1

Cav2.1 = target: T4, Cav2.1 (Homo sapiens, UniProt O00555); experiment: cell-based; settings: 100% = no change, <100% = inhibition
T4 construct: host or cells: HEK293 or CHO
Method in brief: as §1

Cav2.2 = target: T5, Cav2.2 (Homo sapiens, UniProt Q00975); experiment: cell-based; settings: 100% = no change, <100% = inhibition
T5 construct: host or cells: HEK293 or CHO
Method in brief: as §1

Kv2.1 = target: T6, Kv2.1 (Homo sapiens, UniProt Q14721); experiment: cell-based; settings: 100% = no change, <100% = inhibition
T6 construct: host or cells: HEK293 or CHO
Method in brief: as §1

GABA = experiment: Ion channel panel (IonWorks Barracuda): GABA; type: cell-based; settings: 100% = no change, <100% = inhibition
Method in brief: as §1

Nav1.5 = Nav1.5 (Homo sapiens, UniProt Q14524); experiment: in vitro; settings: 100% = no change; for Activity of Nav1.5 with peptide, expressed as a percentage of the reference compound: peptide at 0.2 μM; for Activity of Nav1.5 with peptide (percentage of the reference compound): peptide at 20 μM
Method in brief: as §1

hERG = hERG (Homo sapiens, UniProt Q12809); experiment: in vitro; settings: 100% = no change, <100% = inhibition
Method in brief: as §1

Kir2.1 = target: T7, Kir2.1 (Homo sapiens, UniProt P63252); experiment: Ion channel panel (IonWorks Barracuda): Kir2.1; type: cell-based; settings: 100% = no change, <100% = inhibition
T7 construct: host or cells: HEK293 or CHO
Method in brief: as §1

Kv1.1 = target: T8, Kv1.1 (Homo sapiens, UniProt Q09470); experiment: cell-based; type: cell-based; settings: 100% = no change, <100% = inhibition
T8 construct: host or cells: HEK293 or CHO
Method in brief: as §1

Kv1.2 = target: T9, Kv1.2 (Homo sapiens, UniProt P16389); experiment: cell-based; type: cell-based; settings: 100% = no change, <100% = inhibition
T9 construct: host or cells: HEK293 or CHO
Method in brief: as §1

Kv1.3 = target: T10, Kv1.3 (Homo sapiens, UniProt P22001); experiment: cell-based; type: cell-based; settings: 100% = no change, <100% = inhibition
T10 construct: host or cells: HEK293 or CHO
Method in brief: as §1

Nav1.7 = target: T11, Nav1.7 (Homo sapiens, UniProt Q15858); experiment: cell-based; type: cell-based; settings: 100% = no change; for Activity of Nav1.7 with peptide, expressed as a percentage of the reference compound: peptide at 0.2 μM; for Activity of Nav1.7 with peptide (percentage of the reference compound): peptide at 20 μM
T11 construct: host or cells: HEK293 or CHO

NR2A = target: T12, NR2A (Homo sapiens, UniProt Q12879); experiment: Ion channel panel (IonWorks Barracuda): NR2A; type: cell-based; settings: 100% = no change, <100% = inhibition
T12 construct: host or cells: HEK293 or CHO
Method in brief: as §1

NR2B = target: T13, NR2B (Homo sapiens, UniProt Q13224); experiment: Ion channel panel (IonWorks Barracuda): NR2B; type: cell-based; settings: 100% = no change, <100% = inhibition
T13 construct: host or cells: HEK293 or CHO
Method in brief: as §1

TRPA1 = target: T14, TRPA1 (Homo sapiens, UniProt O75762); experiment: Ion channel panel (IonWorks Barracuda): TRPA1; type: cell-based; settings: 100% = no change, <100% = inhibition
T14 construct: host or cells: HEK293 or CHO
Method in brief: as §1

TRPV1 = target: T15, TRPV1 (Homo sapiens, UniProt Q8NER1); experiment: Ion channel panel (IonWorks Barracuda): TRPV1; type: cell-based; settings: 100% = no change, <100% = inhibition
T15 construct: host or cells: HEK293 or CHO
Method in brief: as §1

[1] = first of two Nav1.5 columns (probably TP1)
[2] = second of two Nav1.5 columns (probably TP2)
[3] = first of two Nav1.7 columns (probably TP1)
[4] = second of two Nav1.7 columns (probably TP2)

Chain of Nav1.5 (Q14524 whole entry): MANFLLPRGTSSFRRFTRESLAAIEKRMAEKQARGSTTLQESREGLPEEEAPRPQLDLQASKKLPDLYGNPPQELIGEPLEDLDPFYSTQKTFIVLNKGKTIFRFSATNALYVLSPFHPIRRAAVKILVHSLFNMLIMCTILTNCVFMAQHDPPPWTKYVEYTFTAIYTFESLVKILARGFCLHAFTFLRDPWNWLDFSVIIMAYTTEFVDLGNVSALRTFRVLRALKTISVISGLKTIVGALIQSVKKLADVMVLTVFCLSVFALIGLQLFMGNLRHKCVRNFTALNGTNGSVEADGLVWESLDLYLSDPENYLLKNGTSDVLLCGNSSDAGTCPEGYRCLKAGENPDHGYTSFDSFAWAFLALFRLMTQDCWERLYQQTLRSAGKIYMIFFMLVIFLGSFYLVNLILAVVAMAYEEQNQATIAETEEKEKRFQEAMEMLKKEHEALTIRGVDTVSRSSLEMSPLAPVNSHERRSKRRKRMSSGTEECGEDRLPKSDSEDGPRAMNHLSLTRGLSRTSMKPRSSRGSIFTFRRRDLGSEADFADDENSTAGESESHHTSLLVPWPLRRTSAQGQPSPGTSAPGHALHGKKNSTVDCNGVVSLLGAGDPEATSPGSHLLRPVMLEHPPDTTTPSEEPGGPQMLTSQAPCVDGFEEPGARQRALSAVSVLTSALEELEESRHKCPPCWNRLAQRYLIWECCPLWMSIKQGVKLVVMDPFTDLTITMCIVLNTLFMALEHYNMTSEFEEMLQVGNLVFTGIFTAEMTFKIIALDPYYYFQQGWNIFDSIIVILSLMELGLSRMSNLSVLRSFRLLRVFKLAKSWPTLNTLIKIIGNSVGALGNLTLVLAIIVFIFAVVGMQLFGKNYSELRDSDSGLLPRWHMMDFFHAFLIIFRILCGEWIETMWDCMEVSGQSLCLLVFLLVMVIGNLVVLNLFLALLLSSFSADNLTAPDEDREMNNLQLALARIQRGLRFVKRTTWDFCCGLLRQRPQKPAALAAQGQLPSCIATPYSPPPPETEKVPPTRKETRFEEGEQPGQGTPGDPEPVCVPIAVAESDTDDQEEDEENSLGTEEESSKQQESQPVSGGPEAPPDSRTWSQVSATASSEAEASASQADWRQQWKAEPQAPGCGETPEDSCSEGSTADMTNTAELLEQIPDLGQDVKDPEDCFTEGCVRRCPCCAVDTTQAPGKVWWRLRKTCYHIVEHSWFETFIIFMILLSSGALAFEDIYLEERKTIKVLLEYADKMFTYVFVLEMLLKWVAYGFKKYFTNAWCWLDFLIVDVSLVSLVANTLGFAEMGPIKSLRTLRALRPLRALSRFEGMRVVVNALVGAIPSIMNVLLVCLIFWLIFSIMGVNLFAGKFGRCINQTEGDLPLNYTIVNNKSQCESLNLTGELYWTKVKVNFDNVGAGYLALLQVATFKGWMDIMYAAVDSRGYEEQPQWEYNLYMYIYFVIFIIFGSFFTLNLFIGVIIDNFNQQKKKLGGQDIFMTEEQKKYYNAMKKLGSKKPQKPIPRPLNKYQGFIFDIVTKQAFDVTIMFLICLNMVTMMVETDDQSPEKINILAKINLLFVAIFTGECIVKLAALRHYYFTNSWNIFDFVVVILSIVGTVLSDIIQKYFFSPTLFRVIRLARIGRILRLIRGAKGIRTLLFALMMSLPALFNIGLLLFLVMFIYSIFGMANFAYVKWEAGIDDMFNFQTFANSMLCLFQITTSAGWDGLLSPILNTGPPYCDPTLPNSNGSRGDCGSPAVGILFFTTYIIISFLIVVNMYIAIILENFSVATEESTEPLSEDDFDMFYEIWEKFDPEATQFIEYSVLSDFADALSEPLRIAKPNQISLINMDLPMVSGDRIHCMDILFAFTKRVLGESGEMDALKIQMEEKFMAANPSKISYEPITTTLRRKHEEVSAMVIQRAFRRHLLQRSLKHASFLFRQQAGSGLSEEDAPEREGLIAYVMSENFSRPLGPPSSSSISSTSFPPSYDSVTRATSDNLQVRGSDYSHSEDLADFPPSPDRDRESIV
T11 sequence (Q15858 whole entry): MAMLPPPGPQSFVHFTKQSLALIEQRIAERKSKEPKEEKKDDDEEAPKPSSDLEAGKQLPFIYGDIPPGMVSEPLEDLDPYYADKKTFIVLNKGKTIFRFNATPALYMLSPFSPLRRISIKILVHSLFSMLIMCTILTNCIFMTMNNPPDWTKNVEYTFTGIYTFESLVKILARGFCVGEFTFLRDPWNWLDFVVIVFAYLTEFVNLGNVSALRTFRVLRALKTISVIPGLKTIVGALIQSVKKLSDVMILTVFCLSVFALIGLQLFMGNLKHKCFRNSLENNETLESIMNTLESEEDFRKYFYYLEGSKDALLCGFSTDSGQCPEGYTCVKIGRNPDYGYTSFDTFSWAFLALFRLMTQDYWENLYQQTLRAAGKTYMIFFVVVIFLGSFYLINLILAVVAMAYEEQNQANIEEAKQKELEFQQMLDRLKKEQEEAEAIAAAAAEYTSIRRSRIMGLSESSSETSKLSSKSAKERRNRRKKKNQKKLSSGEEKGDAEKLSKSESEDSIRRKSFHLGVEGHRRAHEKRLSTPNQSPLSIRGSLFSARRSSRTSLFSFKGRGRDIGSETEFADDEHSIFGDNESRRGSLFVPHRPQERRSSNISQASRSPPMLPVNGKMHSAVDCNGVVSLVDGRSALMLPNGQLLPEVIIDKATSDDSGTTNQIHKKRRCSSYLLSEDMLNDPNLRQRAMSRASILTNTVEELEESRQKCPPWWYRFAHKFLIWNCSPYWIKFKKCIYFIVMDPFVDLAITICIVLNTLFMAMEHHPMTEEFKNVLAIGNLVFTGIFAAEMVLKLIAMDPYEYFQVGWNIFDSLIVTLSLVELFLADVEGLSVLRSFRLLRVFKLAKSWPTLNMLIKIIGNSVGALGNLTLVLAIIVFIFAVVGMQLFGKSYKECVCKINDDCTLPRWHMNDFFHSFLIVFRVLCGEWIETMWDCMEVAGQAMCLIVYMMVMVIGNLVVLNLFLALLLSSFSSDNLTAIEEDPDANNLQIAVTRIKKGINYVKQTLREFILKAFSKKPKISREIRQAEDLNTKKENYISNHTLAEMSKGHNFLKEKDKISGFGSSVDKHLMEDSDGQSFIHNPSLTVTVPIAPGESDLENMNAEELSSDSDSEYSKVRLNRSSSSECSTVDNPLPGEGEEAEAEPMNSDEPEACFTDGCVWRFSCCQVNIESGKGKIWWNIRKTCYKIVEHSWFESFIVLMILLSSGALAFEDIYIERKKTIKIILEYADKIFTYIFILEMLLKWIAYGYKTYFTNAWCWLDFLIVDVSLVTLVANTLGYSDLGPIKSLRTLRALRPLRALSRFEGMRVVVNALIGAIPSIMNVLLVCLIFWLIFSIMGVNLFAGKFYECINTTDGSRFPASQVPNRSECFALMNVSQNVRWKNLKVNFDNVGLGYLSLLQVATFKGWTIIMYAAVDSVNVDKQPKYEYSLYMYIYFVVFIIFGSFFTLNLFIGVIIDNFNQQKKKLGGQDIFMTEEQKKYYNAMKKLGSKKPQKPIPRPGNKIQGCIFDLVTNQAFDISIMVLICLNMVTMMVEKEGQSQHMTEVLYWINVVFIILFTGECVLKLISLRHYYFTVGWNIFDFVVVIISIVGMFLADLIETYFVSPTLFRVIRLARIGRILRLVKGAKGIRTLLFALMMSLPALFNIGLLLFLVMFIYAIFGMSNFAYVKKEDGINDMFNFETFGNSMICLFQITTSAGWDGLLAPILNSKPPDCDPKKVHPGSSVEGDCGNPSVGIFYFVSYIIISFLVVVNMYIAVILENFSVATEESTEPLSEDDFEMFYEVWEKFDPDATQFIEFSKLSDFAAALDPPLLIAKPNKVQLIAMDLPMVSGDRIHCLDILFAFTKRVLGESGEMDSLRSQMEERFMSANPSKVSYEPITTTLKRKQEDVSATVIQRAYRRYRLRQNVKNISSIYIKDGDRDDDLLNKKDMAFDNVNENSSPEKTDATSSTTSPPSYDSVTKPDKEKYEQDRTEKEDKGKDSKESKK
T8 sequence (Q09470 whole entry): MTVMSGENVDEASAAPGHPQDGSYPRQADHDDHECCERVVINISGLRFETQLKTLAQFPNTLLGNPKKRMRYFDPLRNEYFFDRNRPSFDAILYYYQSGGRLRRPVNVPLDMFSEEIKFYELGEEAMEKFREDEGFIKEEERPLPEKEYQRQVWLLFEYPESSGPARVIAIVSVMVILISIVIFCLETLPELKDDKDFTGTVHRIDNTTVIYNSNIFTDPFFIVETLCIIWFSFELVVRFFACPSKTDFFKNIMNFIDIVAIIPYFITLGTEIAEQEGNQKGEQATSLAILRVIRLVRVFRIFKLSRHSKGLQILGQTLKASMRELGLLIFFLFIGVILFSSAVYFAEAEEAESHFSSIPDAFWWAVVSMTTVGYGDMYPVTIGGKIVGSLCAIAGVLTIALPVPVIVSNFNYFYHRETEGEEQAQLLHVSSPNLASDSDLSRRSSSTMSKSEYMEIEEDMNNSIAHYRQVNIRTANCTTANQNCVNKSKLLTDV
T9 sequence (P16389 whole entry): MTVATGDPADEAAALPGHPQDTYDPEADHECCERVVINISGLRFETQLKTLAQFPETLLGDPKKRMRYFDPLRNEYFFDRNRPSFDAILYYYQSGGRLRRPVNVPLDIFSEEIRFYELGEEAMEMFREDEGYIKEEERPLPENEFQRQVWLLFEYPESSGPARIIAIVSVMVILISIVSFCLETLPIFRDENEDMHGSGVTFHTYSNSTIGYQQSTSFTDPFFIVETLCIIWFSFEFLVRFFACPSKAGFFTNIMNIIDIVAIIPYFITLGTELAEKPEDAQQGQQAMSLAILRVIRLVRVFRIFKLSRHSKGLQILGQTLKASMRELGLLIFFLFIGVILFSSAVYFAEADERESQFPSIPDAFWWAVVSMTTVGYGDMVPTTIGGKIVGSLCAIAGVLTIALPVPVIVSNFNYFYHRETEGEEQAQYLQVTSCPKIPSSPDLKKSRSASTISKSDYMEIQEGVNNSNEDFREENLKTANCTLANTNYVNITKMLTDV

5 (GSGVPINVKCRGSRDCLDPCKKAGMRFGKCINSKCHCTP) [compound 5]
Activity of 5HT3a with peptide (percentage of the reference compound) (5HT3a): 80% | Activity of 5HT3a with peptide, expressed as a percentage of the reference compound (5HT3a): 94% | Activity of a3b4 with peptide, expressed as a percentage of the reference compound (α3β4; peptide at 0.2 μM): 104% | Activity of a3b4 with peptide (percentage of the reference compound) (α3β4; peptide at 20 μM): 90% | Activity of a4b2 with peptide, expressed as a percentage of the reference compound (α4β2; peptide at 0.2 μM): 83% | Activity of a4b2 with peptide (percentage of the reference compound) (α4β2; peptide at 20 μM): 93% | Activity of Cav2.1 with peptide, expressed as a percentage of the reference compound (Cav2.1; peptide at 0.2 μM): 100% | Activity of Cav2.1 with peptide (percentage of the reference compound) (Cav2.1; peptide at 20 μM): 121% | Activity of Cav2.2 with peptide, expressed as a percentage of the reference compound (Cav2.2; peptide at 0.2 μM): 94% | Activity of Cav2.2 with peptide (percentage of the reference compound) (Cav2.2; peptide at 20 μM): 117% | Activity of Kv2.1 with peptide, expressed as a percentage of the reference compound (Kv2.1; peptide at 0.2 μM): 110% | Activity of Kv2.1 with peptide (percentage of the reference compound) (Kv2.1; peptide at 20 μM): 109% | Activity of GABA with peptide, expressed as a percentage of the reference compound (GABA; peptide at 0.2 μM): 109% | Activity of GABA with peptide (percentage of the reference compound) (GABA; peptide at 20 μM): 114% | Activity of Nav1.5 with peptide, expressed as a percentage of the reference compound (Nav1.5; [1]): 107% | Activity of Nav1.5 with peptide, expressed as a percentage of the reference compound (Nav1.5; [2]): 107% | Activity of Nav1.5 with peptide (percentage of the reference compound) (Nav1.5; [1]): 103% | Activity of Nav1.5 with peptide (percentage of the reference compound) (Nav1.5; [2]): 105% | Activity of hERG with peptide, expressed as a percentage of the reference compound (hERG; peptide at 0.2 μM): 106% | Activity of hERG with peptide (percentage of the reference compound) (hERG; peptide at 20 μM): 67% | Activity of Kir2.1 with peptide, expressed as a percentage of the reference compound (Kir2.1; peptide at 0.2 μM): 103% | Activity of Kir2.1 with peptide (percentage of the reference compound) (Kir2.1; peptide at 20 μM): 86% | Activity of Kv1.1 with peptide, expressed as a percentage of the reference compound (Kv1.1; peptide at 0.2 μM): 86% | Activity of Kv1.1 with peptide (percentage of the reference compound) (Kv1.1; peptide at 20 μM): 55% | Activity of Kv1.2 with peptide, expressed as a percentage of the reference compound (Kv1.2; peptide at 0.2 μM): 89% | Activity of Kv1.2 with peptide (percentage of the reference compound) (Kv1.2; peptide at 20 μM): 73% | Activity of Kv1.3 with peptide, expressed as a percentage of the reference compound (Kv1.3; peptide at 0.2 μM): 98% | Activity of Kv1.3 with peptide (percentage of the reference compound) (Kv1.3; peptide at 20 μM): 28% | Activity of Nav1.7 with peptide, expressed as a percentage of the reference compound (Nav1.7; [3]): 98% | Activity of Nav1.7 with peptide, expressed as a percentage of the reference compound (Nav1.7; [4]): 109% | Activity of Nav1.7 with peptide (percentage of the reference compound) (Nav1.7; [3]): 79% | Activity of Nav1.7 with peptide (percentage of the reference compound) (Nav1.7; [4]): 66% | Activity of NR2A with peptide, expressed as a percentage of the reference compound (NR2A; peptide at 0.2 μM): 109% | Activity of NR2A with peptide (percentage of the reference compound) (NR2A; peptide at 20 μM): 86% | Activity of NR2B with peptide, expressed as a percentage of the reference compound (NR2B; peptide at 0.2 μM): 112% | Activity of NR2B with peptide (percentage of the reference compound) (NR2B; peptide at 20 μM): 95% | Activity of TRPA1 with peptide, expressed as a percentage of the reference compound (TRPA1; peptide at 0.2 μM): 119% | Activity of TRPA1 with peptide (percentage of the reference compound) (TRPA1; peptide at 20 μM): 75% | Activity of TRPV1 with peptide, expressed as a percentage of the reference compound (TRPV1; peptide at 0.2 μM): 101% | Activity of TRPV1 with peptide (percentage of the reference compound) (TRPV1; peptide at 20 μM): 101%
